Residue numbers refer to the chain shown, from its start. In names and notes the source's numbering stands. Several values for one entry are separate records, joined by “and”; a condition that tells them apart may be missing. Equal values may be shown once. Blank lines part the entries; values can stand above or below the molecule they belong to.
How the values were obtained:
[1] = biological target: T1, ErbB4 (Rattus norvegicus, UniProt Q62956); assay: In vitro phosphorylation of Akt in neonatal rat cardiomyocytes; assay type: cell-based; conditions: for EC50: Akt (Serine 473) phosphorylation, neonatal rat cardiomyocytes, 15 minutes treatment, read-out: Cardiomyocyte (CM) (ErbB4) Avg EC50; for Selectivity SC/CM: ratio of EC50s Schwann cells/cardiomyocytes; for CM % Agonism AVG: top value of the Akt phosphorylation data points in cardiomyocytes, wild-type control 100
T1 construct: forming the ErbB2/ErbB4 complex in cardiomyocytes and the ErbB2/ErbB3 complex in Schwann cells; endogenous in cells; host or cells: primary neonatal rat cardiomyocytes (Sprague Dawley pups, 0 to 4 days old)
T1 sequence (Q62956 26-1308): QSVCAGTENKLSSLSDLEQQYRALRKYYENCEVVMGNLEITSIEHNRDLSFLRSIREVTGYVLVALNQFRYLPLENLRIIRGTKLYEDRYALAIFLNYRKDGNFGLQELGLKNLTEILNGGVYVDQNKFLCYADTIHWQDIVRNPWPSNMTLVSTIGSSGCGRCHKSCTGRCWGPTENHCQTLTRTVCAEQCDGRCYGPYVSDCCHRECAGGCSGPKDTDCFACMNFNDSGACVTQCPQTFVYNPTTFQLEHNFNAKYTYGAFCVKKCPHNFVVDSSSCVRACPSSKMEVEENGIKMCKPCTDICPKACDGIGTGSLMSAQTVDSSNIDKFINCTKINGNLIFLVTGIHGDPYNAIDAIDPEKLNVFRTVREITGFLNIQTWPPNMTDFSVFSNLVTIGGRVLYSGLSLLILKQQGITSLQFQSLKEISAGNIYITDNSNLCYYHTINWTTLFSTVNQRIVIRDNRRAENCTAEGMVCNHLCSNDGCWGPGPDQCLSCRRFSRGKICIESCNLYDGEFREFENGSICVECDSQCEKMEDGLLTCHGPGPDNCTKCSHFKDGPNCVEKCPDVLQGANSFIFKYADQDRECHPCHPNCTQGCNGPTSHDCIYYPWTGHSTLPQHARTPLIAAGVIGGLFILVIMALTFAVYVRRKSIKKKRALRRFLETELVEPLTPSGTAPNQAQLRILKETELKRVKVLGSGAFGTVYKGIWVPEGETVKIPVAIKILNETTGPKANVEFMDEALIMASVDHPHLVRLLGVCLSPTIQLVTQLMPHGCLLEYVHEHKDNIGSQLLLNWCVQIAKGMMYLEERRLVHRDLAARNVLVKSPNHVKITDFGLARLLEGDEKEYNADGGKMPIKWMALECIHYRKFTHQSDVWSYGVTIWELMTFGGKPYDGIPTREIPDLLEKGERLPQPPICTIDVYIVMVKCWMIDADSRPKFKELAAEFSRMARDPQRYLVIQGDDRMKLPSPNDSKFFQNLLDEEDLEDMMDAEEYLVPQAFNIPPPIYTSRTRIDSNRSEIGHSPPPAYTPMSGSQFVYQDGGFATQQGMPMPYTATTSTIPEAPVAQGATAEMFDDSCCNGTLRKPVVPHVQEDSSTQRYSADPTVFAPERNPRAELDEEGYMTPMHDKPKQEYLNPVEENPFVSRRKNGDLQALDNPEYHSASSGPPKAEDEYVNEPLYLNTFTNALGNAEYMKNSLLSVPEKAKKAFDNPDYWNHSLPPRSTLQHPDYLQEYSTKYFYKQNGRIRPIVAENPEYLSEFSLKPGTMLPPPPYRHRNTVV
T1 sequence (P06494 23-1257 partner): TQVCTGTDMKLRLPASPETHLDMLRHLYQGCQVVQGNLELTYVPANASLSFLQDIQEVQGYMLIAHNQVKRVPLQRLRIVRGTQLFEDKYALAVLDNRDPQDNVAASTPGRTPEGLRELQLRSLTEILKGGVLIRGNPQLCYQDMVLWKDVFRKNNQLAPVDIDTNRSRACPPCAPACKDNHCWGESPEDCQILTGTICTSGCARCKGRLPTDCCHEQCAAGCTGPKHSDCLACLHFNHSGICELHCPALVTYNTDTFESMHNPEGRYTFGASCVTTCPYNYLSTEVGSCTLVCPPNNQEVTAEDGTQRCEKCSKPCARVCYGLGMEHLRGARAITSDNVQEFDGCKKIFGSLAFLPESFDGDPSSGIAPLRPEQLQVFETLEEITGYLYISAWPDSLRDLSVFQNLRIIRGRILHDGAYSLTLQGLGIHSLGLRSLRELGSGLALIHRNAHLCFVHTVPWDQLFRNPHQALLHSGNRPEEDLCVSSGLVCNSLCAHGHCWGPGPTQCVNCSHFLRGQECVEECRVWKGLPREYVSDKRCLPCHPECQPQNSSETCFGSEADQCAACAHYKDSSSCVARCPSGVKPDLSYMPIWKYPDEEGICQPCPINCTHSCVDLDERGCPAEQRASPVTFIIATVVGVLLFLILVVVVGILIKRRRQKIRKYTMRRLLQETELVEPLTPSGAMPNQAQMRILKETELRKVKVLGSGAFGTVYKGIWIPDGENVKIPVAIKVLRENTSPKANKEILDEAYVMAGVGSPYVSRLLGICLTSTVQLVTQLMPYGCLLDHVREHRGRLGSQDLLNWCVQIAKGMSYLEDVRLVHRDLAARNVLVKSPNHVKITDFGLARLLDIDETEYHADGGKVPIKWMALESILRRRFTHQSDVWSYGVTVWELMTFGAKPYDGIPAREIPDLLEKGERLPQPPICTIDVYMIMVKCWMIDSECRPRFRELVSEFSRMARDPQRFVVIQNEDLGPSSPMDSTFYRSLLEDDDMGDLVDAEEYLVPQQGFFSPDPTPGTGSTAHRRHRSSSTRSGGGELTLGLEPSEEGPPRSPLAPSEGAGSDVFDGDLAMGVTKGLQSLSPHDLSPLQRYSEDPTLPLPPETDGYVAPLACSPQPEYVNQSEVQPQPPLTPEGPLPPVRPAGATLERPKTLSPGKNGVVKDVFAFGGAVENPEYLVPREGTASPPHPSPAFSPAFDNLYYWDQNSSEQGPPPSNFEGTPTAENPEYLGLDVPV
Procedure: (§1) In Vitro Phosphorylation of Akt in Neonatal Rat Cardiomyocytes and Rat Schwann Cells by Neuregulin Variants
(§2) Specificity of neuregulin variants towards cardiomyocytes (ErbB4) versus Schwann cells (ErbB3) was tested by measuring Akt activity generated by formation of the ErbB2/ErbB4 and ErbB2/ErbB3 complexes. Upon activation by neuregulin, the ErbB4 and ErbB3 receptors dimerize preferentially with the ErbB2 co-receptor, forming the ErbB2/ErbB4 complex in cardiomyocytes and the ErbB2/ErbB3 complex in Schwann cells, both of which signal through the Akt pathway. Neonatal rat cardiomyocytes were isolated from hearts of Sprague Dawley rat pups at 0 to 4 days old according to manufacturer's protocol using the Neomyt kit and plated on Surecoat plates in NS media containing serum (all from Cellultron Life Technologies, Baltimore, MD). Rat Schwann cells were plated in Poly-D-Lysine coated plates with Dulbecco's modified Eagle's media (DMEM) supplemented with fetal bovine serum (Thermo Fisher) and forskolin (Millipore Sigma).
(§3) After a 24-hour incubation in a humidified incubator maintained at 37° C. and 5% CO2, cardiomyocytes and Schwann cells were washed with serum free media and incubated an additional 16 hours in DMEM supplemented with bovine serum albumin (Sigma). Both cell lines were then treated with titrations of the neuregulin variant molecules for 15 minutes, upon which cells were lysed in lysis buffer (Meso Scale Discovery (MSD)). For detection of Akt phosphorylation, lysates were added to the Multi-Spot 96-Well 4-Spot Phospho (Serine 473)/Total Akt plates (MSD), incubated according to the manufacturer's protocol and read in the SECTOR Imager 6000 (MSD). For both cell assays, the percent phosphorylation of Akt was calculated by multiplying the phospho Akt signal by 2, then dividing by the phospho Akt signal added to the total Akt signal and then multiplying by 100. The phosphorylation of Akt data points were fitted using a log (agonist) versus response, variable slope (4 parameters) analysis in GraphPad Prism to generate EC50 curves. The CM % agonism reflect the top value of the data points.

[2] = biological target: T2, ErbB3 (Rattus norvegicus, UniProt Q62799); assay: In vitro phosphorylation of Akt in rat Schwann cells; assay type: cell-based; conditions: Akt (Serine 473) phosphorylation, 15 minutes treatment; for EC50: read-out: Schwann cells (SC) (ErbB3) Avg EC50
T2 construct: forming the ErbB2/ErbB4 complex in cardiomyocytes and the ErbB2/ErbB3 complex in Schwann cells; endogenous in cells; host or cells: rat Schwann cells
T2 sequence (Q62799 20-1339): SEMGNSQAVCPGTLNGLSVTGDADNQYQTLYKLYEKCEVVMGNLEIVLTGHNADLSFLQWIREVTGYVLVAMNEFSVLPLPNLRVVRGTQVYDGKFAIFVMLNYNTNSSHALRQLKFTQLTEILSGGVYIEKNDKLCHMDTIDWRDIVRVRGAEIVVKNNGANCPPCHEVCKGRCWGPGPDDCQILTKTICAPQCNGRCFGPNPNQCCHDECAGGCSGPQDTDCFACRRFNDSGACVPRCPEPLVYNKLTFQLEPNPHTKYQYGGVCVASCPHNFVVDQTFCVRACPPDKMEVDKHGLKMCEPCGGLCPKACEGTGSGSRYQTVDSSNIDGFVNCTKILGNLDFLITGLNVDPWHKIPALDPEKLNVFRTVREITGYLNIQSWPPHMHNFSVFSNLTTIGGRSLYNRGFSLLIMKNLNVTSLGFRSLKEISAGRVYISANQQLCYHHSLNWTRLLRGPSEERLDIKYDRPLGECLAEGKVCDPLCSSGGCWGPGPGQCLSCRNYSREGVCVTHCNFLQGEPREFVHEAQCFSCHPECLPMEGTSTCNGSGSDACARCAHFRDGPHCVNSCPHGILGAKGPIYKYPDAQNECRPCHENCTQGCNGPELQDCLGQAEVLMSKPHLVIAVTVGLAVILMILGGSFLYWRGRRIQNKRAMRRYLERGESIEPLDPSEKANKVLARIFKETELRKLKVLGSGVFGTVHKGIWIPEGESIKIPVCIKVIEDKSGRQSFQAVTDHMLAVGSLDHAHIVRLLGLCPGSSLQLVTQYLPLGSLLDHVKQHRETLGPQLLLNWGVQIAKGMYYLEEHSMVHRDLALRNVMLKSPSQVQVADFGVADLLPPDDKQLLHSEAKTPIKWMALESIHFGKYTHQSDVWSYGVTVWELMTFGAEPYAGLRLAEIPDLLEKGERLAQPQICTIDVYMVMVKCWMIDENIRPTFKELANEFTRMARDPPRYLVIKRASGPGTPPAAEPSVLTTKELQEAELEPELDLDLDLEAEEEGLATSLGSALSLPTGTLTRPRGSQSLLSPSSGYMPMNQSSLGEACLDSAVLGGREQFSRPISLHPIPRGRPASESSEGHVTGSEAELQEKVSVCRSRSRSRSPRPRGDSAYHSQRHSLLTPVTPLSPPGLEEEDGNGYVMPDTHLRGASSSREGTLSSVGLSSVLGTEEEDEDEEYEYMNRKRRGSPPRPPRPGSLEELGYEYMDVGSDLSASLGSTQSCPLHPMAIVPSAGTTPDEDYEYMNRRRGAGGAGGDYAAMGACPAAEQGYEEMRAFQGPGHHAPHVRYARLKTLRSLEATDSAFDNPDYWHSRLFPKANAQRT
T2 sequence (P06494 23-1257 partner): as the sequence (P06494 23-1257 partner) above
Procedure: as §1, §2, §3

- EC50 [1]: 1.44 nM
- Selectivity SC/CM [1]: >10000
- CM % Agonism AVG [1]: 106%
- EC50 [2]: 10000 nM
B1: huNRG1(S177-F229)(NRGE1C) 6xHis: 6xHis-tagged NRG1 variant SEQ ID NO:117 (protein)
chain: SHLVKCGEKHKSFCVNGGECFMIEGPSNPSRYLCKCPNEFTGDRCQEDFMASFGGGGEGGGGAGGGGHHHHHH
modifications: 6xHis tag; huNRG1(S177-F229)(NRGE1C) 6xHis

- EC50 [1]: 0.825 nM
- Selectivity SC/CM [1]: >10000
- CM % Agonism AVG [1]: 91.82%
- EC50 [2]: 10000 nM
B2: huNRG1(S177-F229)(NRGE1C) (E47K_D48T_F49S_M50L) 6xHis: 6xHis-tagged NRG1 variant SEQ ID NO:120 (protein)
chain: B1 chain with E47K, D48T, F49S, M50L
modifications: 6xHis tag; huNRG1(S177-F229)(NRGE1C) (E47K_D48T_F49S_M50L) 6xHis

- EC50 [1]: 0.712 nM
- Selectivity SC/CM [1]: >10000
- CM % Agonism AVG [1]: 105.7%
- EC50 [2]: 10000 nM
B3: huNRG1(S177-F229)(NRGE1C) (D48T_F49Q_M50I) 6xHis: 6xHis-tagged NRG1 variant SEQ ID NO:118 (protein)
chain: B1 chain with D48T, F49Q, M50I
modifications: 6xHis tag; huNRG1(S177-F229)(NRGE1C) (D48T_F49Q_M50I) 6xHis

- EC50 [1]: 1.1 nM
- Selectivity SC/CM [1]: >10000
- CM % Agonism AVG [1]: 96.47%
- EC50 [2]: 10000 nM
B4: huNRG1(S177-F229)(NRGE1C) (E47A_D48P_F49H_M50I) 6xHis: 6xHis-tagged NRG1 variant SEQ ID NO:119 (protein)
chain: B1 chain with E47A, D48P, F49H, M50I
modifications: 6xHis tag; huNRG1(S177-F229)(NRGE1C) (E47A_D48P_F49H_M50I) 6xHis

- EC50 [1]: 14.8 nM
- Selectivity SC/CM [1]: 53
- EC50 [2]: 783 nM
B5: huNRG1(S177-S228)(NRGE1C)::3x(G4Q)::huFcSEFL2 (Pb): Fc fusion of NRG1 variant SEQ ID NO:116 (protein)
chain: STYRCVSVLTVLHQDWLNGKEYKCKVSNKALPAPIEKTISKAKGQPREPQVYTLPPSREEMTKNQVSLTCLVKGFYPSDIAVEWESNGQPENNYKTTPPVLDSDGSFFLYSKLTVDKSRWQQGNVFSCSVMHEALHNHYTQKSLSLSPGK
modifications: huNRG1(S177-S228)(NRGE1C)::3x(G4Q)::huFcSEFL2 (Pb)

- EC50 [1]: 2.6 nM
- Selectivity SC/CM [1]: 0.03
- EC50 [2]: 0.07 nM
B6: huNRG1(S177-S228)(wt)::3x(G4Q)::huFcSEFL2 (Pb): Fc fusion of wild-type NRG1 fragment S177-S228 (protein)
chain: B5 chain
modifications: huNRG1(S177-S228)(wt)::3x(G4Q)::huFcSEFL2 (Pb)

- EC50 [1]: 0.15 nM and 0.154 nM and 0.28 nM and 0.253 nM
B7: Wild-type as control: wild-type neuregulin sequence used as control in the Akt assays; construct not specified (wild-type fragment: SEQ ID NO: 112) (protein)
chain: SHLVKCAEKEKTFCVNGGECFMVKDLSNPSRYLCKCPNEFTGDRCQNYVMASFYKAEELYQ
modifications: chains of the parent or of the whole protein

- EC50 [1]: 3.4 nM
- Selectivity SC/CM [1]: >10000
- CM % Agonism AVG [1]: 91.6%
- Schwann cells (SC) (ErbB3) Avg EC50 (M) [2]: inactive
B8: :huNRG1(S177-F229)(NRGE1C)::2X(G4A)G4::huFcSEFL2v131(+): Fc fusion of NRG1 variant SEQ ID NO:117 (protein)
chain: SHLVKCGEKHKSFCVNGGECFMIEGPSNPSRYLCKCPNEFTGDRCQEDFMASFGGGGAGGGGAGGGGDKTHTCPPCPAPELLGGPSVFLFPPKPKDTLMISRTPEVTCVVVDVSHEDPEVKFNWYVDGVEVHNAKTKPCEEQYGSTYRCVSVLTVLHQDWLNGKEYKCKVSNKALPAPIEKTISKAKGQPREPQVYTLPPSREKMTKNQVSLTCLVKGFYPSDIAVEWESNGQPENNYKTTPPVLKSDGSFFLYSKLTVDKSRWQQGNVFSCSVMHEALHNHYTQKSLSLSPGKDKTHTCPPCPAPELLGGPSVFLFPPKPKDTLMISRTPEVTCVVVDVSHEDPEVKFNWYVDGVEVHNAKTKPCEEQYGSTYRCVSVLTVLHQDWLNGKEYKCKVSNKALPAPIEKTISKAKGQPREPQVYTLPPSREEMTENQVSLTCLVEGFYPSDIAVEWESNGQPENNYETTPPVLDSDGSFFLYSDLTVDKSRWQQGNVFSCSVMHEALHNHYTQKSLSLSPGK
modifications: huNRG1(S177-F229)(NRGE1C) ::2X(G4A)G4::huFcSEFL2v131(+)

- EC50 [1]: 2 nM
- Selectivity SC/CM [1]: >10000
- CM % Agonism AVG [1]: 87.1%
- Schwann cells (SC) (ErbB3) Avg EC50 (M) [2]: inactive
B9: :huNRG1(S177-F229)(NRGE1D)::2X(G4A)G4::huFcSEFL2v131(+): Fc fusion of NRG1 variant SEQ ID NO:126 (protein)
chain: B8 chain with K9S, F21Y, I23V, P26S, N28I
modifications: huNRG1(S177-F229)(NRGE1D) ::2X(G4A)G4::huFcSEFL2v131(+)

- EC50 [1]: 1.9 nM
- Selectivity SC/CM [1]: >10000
- CM % Agonism AVG [1]: 91.9%
- Schwann cells (SC) (ErbB3) Avg EC50 (M) [2]: inactive
B10: :huNRG1(S177-F229)(NRGE1D)::2X(G4E)G4::huFcSEFL2v131(+): Fc fusion of NRG1 variant SEQ ID NO:126 (protein)
chain: B8 chain with K9S, F21Y, I23V, P26S, N28I, A58E, A63E
modifications: huNRG1(S177-F229)(NRGE1D) ::2X(G4E)G4::huFcSEFL2v131(+)

- EC50 [1]: 2.9 nM
- Selectivity SC/CM [1]: >10000
- CM % Agonism AVG [1]: 94%
- Schwann cells (SC) (ErbB3) Avg EC50 (M) [2]: inactive
B11: :huNRG1(S177-F229)(NRGE1C)::2X(G4E)G4::huFcSEFL2v131(+): Fc fusion of NRG1 variant SEQ ID NO:117 (protein)
chain: B8 chain with A58E, A63E
modifications: huNRG1(S177-F229)(NRGE1C) ::2X(G4E)G4::huFcSEFL2v131(+)

- EC50 [1]: 0.3 nM
- Selectivity SC/CM [1]: >10000
- CM % Agonism AVG [1]: 85.4%
- Schwann cells (SC) (ErbB3) Avg EC50 (M) [2]: inactive
B12: :huFcSEFL2(desK)vl31(+):G4SG4:huNRG1(S177-Q237)(NRGE1C): N-terminal Fc fusion of NRG1 variant SEQ ID NO:124 (protein)
chain: DKTHTCPPCPAPELLGGPSVFLFPPKPKDTLMISRTPEVTCVVVDVSHEDPEVKFNWYVDGVEVHNAKTKPCEEQYGSTYRCVSVLTVLHQDWLNGKEYKCKVSNKALPAPIEKTISKAKGQPREPQVYTLPPSREKMTKNQVSLTCLVKGFYPSDIAVEWESNGQPENNYKTTPPVLKSDGSFFLYSKLTVDKSRWQQGNVFSCSVMHEALHNHYTQKSLSLSPGGGGGSGGGGSHLVKCGEKHKSFCVNGGECFMIEGPSNPSRYLCKCPNEFTGDRCQEDFMASFYKAEELYQDKTHTCPPCPAPELLGGPSVFLFPPKPKDTLMISRTPEVTCVVVDVSHEDPEVKFNWYVDGVEVHNAKTKPCEEQYGSTYRCVSVLTVLHQDWLNGKEYKCKVSNKALPAPIEKTISKAKGQPREPQVYTLPPSREEMTENQVSLTCLVEGFYPSDIAVEWESNGQPENNYETTPPVLDSDGSFFLYSDLTVDKSRWQQGNVFSCSVMHEALHNHYTQKSLSLSPGK
modifications: huFcSEFL2(desK)v131(+)G4SG4huNRG1(S177-Q237) (NRGE1C)

- EC50 [1]: 0.23 nM
- Selectivity SC/CM [1]: >10000
- CM % Agonism AVG [1]: 88.7%
- Schwann cells (SC) (ErbB3) Avg EC50 (M) [2]: inactive
B13: :huFcSEFL2(desK)vl31(+):G4SG4:huNRG1(S177-Q237)(NRGE1D): N-terminal Fc fusion of NRG1 variant SEQ ID NO:131 (protein)
chain: B12 chain with K244S, F256Y, I258V, P261S, N263I
modifications: huFcSEFL2(desK)v131(+)G4SG4huNRG1(S177-Q237) (NRGE1D)

— patent publication US12692294B2, “Engineered NRG-1 variants with improved selectivity toward ErbB4 but not against ErbB3” (Amgen Inc., priority 2021, dated 2026)
